Tests used:
[1] = tested on: Esophageal carcinoma cell line EC-GI-10; assay: In vivo antitumor effect, EC-GI-10 subcutaneous transplant model; conditions: 0.4 mg/kg, tail vein, on Day 35, female NSG mice
Method: (§1) The antitumor effects of the antibody-drug conjugates were evaluated by using animal models in which cells of a human tumor cell line had been transplanted into immunodeficient mice, or cells of a mouse tumor cell line had been transplanted into immunocompetent mice. 4 to 6 Week-old SCID mice (CB17/Icr-Prkdc[scid]/CrlCrlj, Jackson Laboratory Japan, Inc.), NSG mice (NOD.Cg-Prkdcscid Il2rgtm1Wjl/SzJ, Jackson Laboratory Japan, Inc.), or B6J mice (C57BL/6J, Jackson Laboratory Japan, Inc.) were habituated for 3 days or more under SPF conditions before experimental use. The mice were fed with sterilized solid feed and given sterilized tap water. The major and minor diameters of the transplanted tumors were measured twice a week with an electronic digital caliper (Mitutoyo Corporation), and the estimated tumor volume was calculated using the following formula. Estimated tumor volume (mm^3) = 1/2 × major diameter (mm) × [minor diameter (mm)]^2 All antibody-drug conjugates were diluted with ABS and administered into the tail vein at doses shown in each Example. In addition, ABS (vehicle) or control hIgG-PBD prepared in Reference Example 4 was administered as the control group, in a similar manner. 5 to 6 Mice were used per group in the experiment. To analyze the LRRC15 expression in mouse tumor models, immunohistochemical staining of LRRC15 was performed. […]

[2] = tested on: Gastric carcinoma cell line Caki-1; assay: In vivo antitumor effect, Caki-1 subcutaneous transplant model; conditions: 0.4 mg/kg, tail vein, on Day 21, female SCID mice
Method: as §1

B1: H02L01-V1-PBD (conjugate)
heavy: EVQLVESGGGLVQPGGSLRLSCAASGFTFRDYYMAWVRQAPGKGLEWVSSIGFDESRTYYADSVKGRFTISRDDSKNTLYLQMNSLRAEDTAVYYCARHGVSKYSGDNWFAYWGQGTLVTVSSASTKGPSVFPLAPSSKSTSGGTAALGCLVKDYFPEPVTVSWNSGALTSGVHTFPAVLQSSGLYSLSSVVTVPSSSLGTQTYICNVNHKPSNTKVDKKVEPKSCDKTHTCPPCPAPEAAGGPSVFLFPPKPKDTLMISRTPEVTCVVVDVSHEDPEVKFNWYVDGVEVHNAKTKPREEQYNSTYRVVSVLTVLHQDWLNGKEYKCKVSNKALAAPIEKTISKAKGQPREPQVYTLPPSREEMTKNQVSLTCLVKGFYPSDIAVEWESNGQPENNYKTTPPVLDSDGSFFLYSKLTVDKSRWQQGNVFSCSVMHEALHNHYTQKSLSLSPGK
light: DIQMTQSPSSLSASVGDRVTITCKSSQGLLYSGDQKNYLAWYQQKPGKAPKLLIYWASTRQSGVPSRFSGSGSGTDFTLTISSLQPEDFATYYCQQYYDPPYTFGQGTKVEIKRTVAAPSVFIFPPSDEQLKSGTASVVCLLNNFYPREAKVQWKVDNALQSGNSQESVTEQDSKDSTYSLSSTLTLSKADYEKHKVYACEVTHQGLSSPVTKSFNRGEC
antitumor effect (estimated tumor volume) [1]: antitumor activity higher than that of the vehicle and control hIgG-PBD | antitumor effect (estimated tumor volume) [2]: antitumor activity higher than that of the vehicle and control hIgG-PBD

Reference: patent EP4703474A1, “ANTI-LRRC15 ANTIBODY” (priority 2023, dated 2024)
